Laboratory results as given in doi:10.1101/2020.02.28.970301, “Picomolar affinity antagonist and sustained signaling agonist peptide ligands for the adrenomedullin and calcitonin gene-related peptide receptors” (bioRxiv, 2020).

Target: T1, CLR ECD (29-144) as it stands in MBP-RAMP2.55-140[L106R]-(GSA)3-CLR.29-144-H6 (human, UniProt Q16602 29-144)
T1 construct: calcitonin receptor-like receptor (CLR), human, extracellular domain, residues 29-144; joined to m5 on one chain by the (GSA)3 linker in the crystallised fusion m4; source: E. coli, purified (as part of the fusion m4); not shown: His6, C-terminal, kept
Assay: crystal structure; bacterially expressed MBP-RAMP2 ECD-(GSA)3-CLR ECD mixed with peptide 1:1.2; hanging drop, 20% PEG MME 5000, 0.1 M sodium HEPES pH 8.2, 150 mM sodium formate, 3% DMSO; 1.83 Å
Conditions: both partners purified

T1 sequence (Q16602 29-144, stated change not applied): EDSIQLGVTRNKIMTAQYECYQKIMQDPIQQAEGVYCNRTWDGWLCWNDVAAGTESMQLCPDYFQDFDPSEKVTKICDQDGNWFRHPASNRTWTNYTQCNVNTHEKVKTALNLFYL

B1: RAMP2 ECD (55-140, L106R) as it stands in MBP-RAMP2.55-140[L106R]-(GSA)3-CLR.29-144-H6 (domain or fragment, human, UniProt O60895 55-140, looked up)
chain: GGTVKNYETAVQFCWNHYKDQMDPIEKDWCDWAMISRPYSTLRDCLEHFAERFDLGFPNPLAERIIFETHQIHFANCSLVQPTFSD
notes: receptor activity-modifying protein 2 (RAMP2), human, extracellular domain, residues 55-140; joined to m6 on one chain by the (GSA)3 linker in the crystallised fusion m4; source: E. coli, purified (as part of the fusion m4); not shown: MBP, N-terminal, kept
  binding result: binds
